Patent publication US9752163B2, “Process for the production of isoprenol from mevalonate employing a diphosphomevalonate decarboxylase” (Global Bioenergies, priority 2009, dated 2017)

Tests used:
[1] = Mevalonate decarboxylation activity followed by inorganic phosphate production (ammonium molybdate method); format: biochemical
Experimental: The reaction medium contained 100 mM mevalonate, 40 mM ATP, 10 mM MgCl2, 20 mM KCl, 0.5 mM DTT and enzyme preparation varying from 0.01 to 0.05 mg/ml of protein. 50 mM sodium citrate was used in the range of pH from 4 to 6, and 50 mM Tris-HCl for pH 7 and 7.5. Enzyme-free control assays were carried out in parallel. After 72 h incubation, inorganic phosphate was quantified colorimetrically according to the ammonium molybdate method (Gawronski J D, Benson D R, Anal. Biochem. 327 (2004) 114-118). A 50 μl sample (containing not more than 0.5 μmole of phosphate) was mixed with 150 μl of ammonium molybdate reagent containing 50% v/v acetone, 1.25 N H2SO4, 2.5 mM (NH4)6Mo7O24 and then with 10 μl 1 M citric acid. The mixture was incubated for 2 minutes at room temperature. The absorbance of ammonium phosphomolybdate formed was measured at 355 nm and the quantity of inorganic phosphate estimated using a calibration curve obtained with potassium phosphate.
(§1) The complete assay for mevalonate decarboxylation contains reaction buffer, 100 mM mevalonate, 40 mM ATP, 10 mM MgCl2, 20 mM KCl, 0.5 mM DTT and enzyme preparation at a concentration ranging from 0.01 to 0.05 mg/ml of protein. 50 mM sodium citrate is used in the range of pH from 4 to 6, and 50 mM Tris-HCl for pH 7 and 7.5. Control reactions are carried out in the absence of enzyme, substrate or co-factor.
Inorganic phosphate concentration is measured by spectroscopic colorimetry according to the ammonium molybdate method (Gawronski J D, Benson D R, Anal. Biochem. 327 (2004) 114-118). A 50 μl aliquot from the reaction assay (containing not more than 0.5 μmole of phosphate) is mixed with 150 μl ammonium molybdate reagent, containing 50% volume acetone, 1.25 N H2SO4, 2.5 mM (NH4)6Mo7O24 and then with 10 μl 1 M citric acid. The mixture is then incubated for 2 minutes at room temperature. The absorbance of ammonium phosphomolybdate formed was measured at 355 nm and the quantity of inorganic phosphate estimated using a calibration curve obtained with potassium phosphate.

[2] = Product formation as function of mevalonate concentration (permanganate assay); format: biochemical; details: purified enzyme, range of mevalonate concentrations (FIG. 6)
Experimental: as §1
The formation of products containing double-bonds is followed by oxidization with alkaline potassium permanganate solution, resulting in increase of absorbance at 420 nm.
To an aliquot of reaction mixture diluted with H2O to 120 μl, 80 μl of permanganate reagent, containing 5 mM KMnO4 and 50 mM NaOH, is added. The mixture is kept at room temperature for 20 min and the absorbance at 420 nm is measured. The calibration curve is prepared using commercial isoprenol.

B1: Thermoplasma volcanium (accession number Q97BY2): MDP decarboxylase enzyme inferred from the genome of Thermoplasma volcanium (protein, listed as Thermoplasma volcanium)
chain: MLHHHHHHSNSSITSVAYPTIGVVLLGGIANEKTRTPLHTSAGIAYTDSCGSIRTESTIYGDSEMHIYFNGTESKDENRSVKSVLERYRNELQSFFGKKDVSYSSLNYGILSGSSDAGAASIGAILSFIDKKNDIHDIENDIRMISESAGRSLHGGLTITWSDGYSAYTERVLGPEHFNNYAIVGFSFDYPRNPSDTIHQNIIKSKRYKQRTIDADEHAHEIKEMARTDDIEGIFEKAEEDTEEYHSILREVGVLVIRENMQKLIEFIKILRKEFWNSYIVTGGSNVYVIVRRDDLERLIHIKNTFGSKPKILNVAGPAWIKKVESD
phosphate production with mevalonate as substrate ([1]; purified proteins (FIG. 5)): significant increase in phosphate production

B2: Thermoplasma acidophilum (accession number Q9H1N1): MDP decarboxylase enzyme inferred from the genome of Thermoplasma acidophilum (protein, listed as Thermoplasma acidophilum)
chain: MLHHHHHHTYRSIGSTAYPTIGVVLLGGIANPVTRTPLHTSAGIAYSDSCGSIRSETRIYADEATHIYFNGTESTDDNRSVRRVLDRYSSVFEEAFGTKTVSYSSQNFGILSGSSDAGAASIGAAILGLKPDLDPHDVENDLRAVSESAGRSLFGGLTITWSDGFHAYTEKILDPEAFSGYSIVAFAFDYQRNPSDVIHQNIVRSDLYPARKKHADEHAHMIKEYAKTNDIKGIFDLAQEDTEEYHSILRGVGVNVIRENMQKLISYLKLIRKDYWNAYIVTGGSNVYVAVESENADRLFSIENTFGSKKKMLRIVGGAWHRRPE
phosphate production with mevalonate as substrate ([1]; purified proteins (FIG. 5)): significant increase in phosphate production

B3: Picrophilus torridus MDP decarboxylase: diphosphomevalonate (MDP) decarboxylase EC 4.1.1.33 from Picrophilus torridus, expressed in E. coli from the native or codon-optimized gene (protein, listed as Picrophilus torridus)
chain: MENYNVKTRAFPTIGIILLGGISDKKNRIPLHTTAGIAYTGINNDVYTETKLYVSKDEKCYIDGKEIDLNSDRSPSKVIDKFKHEILMRVNLDDENNLSIDSRNFNILSGSSDSGAAALGECIESIFEYNINIFTFENDLQRISESVGRSLYGGLTVNYANGRESLTEPLLEPEAFNNFTIIGAHFNIDRKPSNEIHENIIKHENYRERIKSAERKAKKLEELSRNANIKGIFELAESDTVEYHKMLHDVGVDIINDRMENLIERVKEMKNNFWNSYIVTGGPNVFVITEKKDVDKAMEGLNDLCDDIRLLKVAGKPQVISKNF
modifications: DSM 9790
notes: diphosphomevalonate (MDP) decarboxylase EC 4.1.1.33 from Picrophilus torridus, expressed in E. coli from the native or codon-optimized gene
enzyme activity with mevalonate as substrate ([1]; crude lysate of E. coli, optimized gene versus native sequence (FIG. 4b)): higher enzyme activity
phosphate production with mevalonate as substrate ([1]; library screening, E. coli extracts, 100 mM mevalonate, 40 mM ATP, 72 h incubation): reproducible increase in phosphate production over the background level
conversion rate [2]: increase with the concentration of mevalonate
